Results published in patent publication US20220273810A1 (IMCARE BIOTECH, published 2022).

T1: NS-SPIK (Normal Secreted serine protease inhibitor Kazal) (Homo sapiens (Human), UniProt P00995 24-79)
T1 construct: also called Normal Secreted SPIK
T1 sequence: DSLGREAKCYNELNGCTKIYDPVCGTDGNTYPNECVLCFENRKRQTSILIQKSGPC

B1: IM-E2 (antibody, V domains shown)
VH: QSVKESEGGLFKPTDTLTLTCTVSGFSLSAYAISWVRQAPGNGLEWIGAINSGGSAYYANWAKSRSTITRNTNLNTVTLKMTSLTAADTATYFCAREDIYDYGGAFDPWGPGTLVTVST
VL: AYDMTQTPASVEVTVGGTVTIKCQASQGISSYLSWYQQKPGQPPKLLIYAATTLVSGVSSRFKGSGSGTQFTLTISGVECADAATYYCQQDYTTSNVDNTFGGGTEVVVKG
notes: Rabbit monoclonal antibody
B2: IM-F5 (antibody, V domains shown)
VH: QSVKESEGGLFKPTDTLTLTCTVSGFSLSIYGVSWVRQAPGNGLEWIGIIYASGSADYASWAKSRSTITRNTNLNTVTLKMTSLTAADTATYFCAREDDTYGYTSSIWGPGTLVTVSS
VL: AYDMTQTPASVSAAVGGTVTIKCQASQSISSYLNWYQQKPGQPPKRLIYRASTLASGVSSRFKGSGSGTQFTLTISGVECADAATYYCQQDYSSNNIDNTFGGGTEVVVKG
notes: Rabbit monoclonal antibody
B3: IM-D5 (antibody, V domains shown)
VH: QSVKESEGGLFKPTDTLTLTCTVSGFSLSSYAISWVRQAPGNGLEWIGAIGKSGSAYYASWAKSRSTITRNTNLNTVSLKMTSLTAADTATYFCARWDSVGWTDARLDLWGQGTLVTVSS
VL: AYDMTQTPASVEVAVGGTVTIKCQASQSISTALAWYQQKPGQRPKLLIYGASKLASGVSSRFSGSGSGTEFTLTISGVECADAATYYCQQGYETSNVDNAFGGGTEVVVKG
notes: Rabbit monoclonal antibody
B4: IM-B10 (antibody, V domains shown)
VH: QSVKESEGGLFKPTDTLTLTCTVSGFSLSSYGVSWVRQAPGKGLEWIGSIWSGGTTDYASWAKSRSTITRNTNENTVTLKVTSLTAADTATYFCARGGYDYGYASNIWGPGTLVTVSS
VL: AYDMTQTPASVEVAVGGTVTIKCQASESISSYLSWYQQKPGQPPKLLIYRASTLASGVPSRFSGSGSGTEFTLTISDGQCDDAATYYCQQGYSVSNVDNIFGGGTEVVVKG
notes: Rabbit monoclonal antibody; also called IM4-B10
B5: IM-D3 (antibody, V domains shown)
VH: QSVKESEGGLFKPTDTLTLTCTVSGFSLSSYAIGWVRQAPGNGLEWIGTIVTSGIPYYANWAKSRSTITRNTNLNTVTLKMTSLTAADTATYFCARNLDPAYSTTRLDLWGQGTLVTVSS
VL: AYDMTQTPASVSEPVRGTVTIKCQASQSISTALAWYQQKPGQPPKLLIYAASYLASGVPSRFSGSGSGTEFTLTISDLECADAATYYCHQGYSASNVDNTFGGGTEGGVKG
notes: Rabbit monoclonal antibody
B6: IM-C6 (antibody, V domains shown)
VH: QSVKESEGGLFKPTDALTLTCTVSGFSLSSYAISWVRQAPGSGLEWIGAINTYGGTYYASWAKSRSTITRNTNENTVTLKMTSLTAADTATYFCARDFDSDAYTSASGGMDPWGPGTLVTVSS
VL: AYDMTQTPASVEVAVGGTVTIKCQASQSINNYLSWYQQIPGQPPKLLIYRASTLASGVSSRFKGSGSGTQFTLTISGVQCADAATYYCQQGYTSNVDNVFGGGTEVVVKG
notes: Rabbit monoclonal antibody
B7: IM-G7 (antibody, V domains shown)
VH: QSVKESEGGLFKPTDTLTLTCTVSGFSLSSNVISWVRQAPGKGLEWIGDIYVSGNTDYASWAKSRSTITRNANLNTVTLKMTSLTAADTATYFCARYDMSSDAFDPWGPGTLVTVSS
VL: AYDMTQTPASVEVAVGGTVTIKCQASQNIGSYLSWYQHKPGQRPRLLMYRASTLASGVSSRFKGSGSGTEFTLTISGVQCDNAATYYCQQGYTNSGVDNTFGGGTEVVVKG
notes: Rabbit monoclonal antibody
B8: IM-A1 (antibody, V domains shown)
VH: QSVKESEGGLFKPTDTLTLTCTVSGFSLSSNAISWVRQAPGNGLEWIGAIGSSGSTYYASWAKSRSTVTRNTNLNTVTLKMTSLTAADTATYFCARWENIGYTNVRLDLWGQGTLVTVSS
VL: AYDMTQTPASVEVAVGGTVTIKCQASQSISTALAWYQQKPGQPPKLLIYGASTLASGVSSRFKGSGSGTQFTLTISGVECADAATYYCQQGYSTSDVDNAFGGGTEG
notes: Rabbit monoclonal antibody; also called I-A1
B9: IM-A6 (antibody, V domains shown)
VH: QSVKESEGGLFKPTDTLTLTCTVSGFSLSSYAISWVRQAPGNGLEWIGRINSGGATDYASWARSRSTITRDTNLNTVTLQMTSLTAADTATYFCAKEEYSYGGAYGMWGPGTLVTVSS
VL: AYDMTQTPASVSAAVGGTVTIKCQASESISTYLSWLQQKPGQPPKLLIYKASTLASGVPSRFKGSGSGTEFTLTISGVQCDDAATYYCQQDYTISNVGNVFGGGTEVVVKG
notes: Rabbit monoclonal antibody; also called I-A6
B10: IM-G6 (antibody, V domains shown)
VH: QSVKESEGGLFKPTDTLTLTCTVSGFSLSSYPISWVRQAPGNGLEWIGDIYASGSILYASWATGRSTITRNTNLNTVTLKMTSLTAADTATYFCARVSYSGGTDIWGPGTLVTVSS
VL: AYDMTQTPASVEVAVGGTVTIKCQASEDIESYLAWYQQKPGQPPKLLIYRASTLPSGVPSRFKGSGSGTEFTLTISDLECADAATYYCQQDYSSSNVDNTFGGGTEVVVKG
notes: Rabbit monoclonal antibody

target: AS-SPIK (Abnormal Secreted serine protease inhibitor Kazal) (Homo sapiens (Human)) (UniProt P00995); assay: sandwich ELISA, HCC patient serum (serum AS-SPIK), complex captured on polyclonal anti-SPIK plate, anti-rabbit-HRP/TMB

OD [OD] | Binder
1.48 | B1

target: AS-SPIK (Abnormal Secreted serine protease inhibitor Kazal) (Homo sapiens (Human)) (UniProt P00995); assay: sandwich ELISA, S2-3 medium, complex captured on polyclonal anti-SPIK plate, anti-rabbit-HRP/TMB

OD [OD] | Binder
1.39 | B1

target: T1, NS-SPIK (Normal Secreted serine …); assay: ELISA on a plate immobilised with NS-SPIK from pancreatic cells, OD450nm; antibody concentration not given
Experimental: Ten monoclonal antibodies described here were generated from rabbit. Briefly, rabbit were immunized with the recombinant AS-SPIK which contain different subsets of 23 extra amino acids (SEQ ID NO: 81). The blood was tested after three or four time imbursements by ELISA. Briefly, blood from immunized rabbits were reacted with plate coated with recombinant AS-SPIK. After washing, the color was developed by incubation of the plate with an anti-rabbit antibody labeled with HRP (horseradish peroxidase), and the optical density was measured after reaction with substrate TMB. The rabbit which is positive in test (produced antibody) was sacrificed. The monoclonal antibody was then established and further screened with ELISA using the plates immobilized with partially purified AS-SPIK from S2-3 cells, a cell line expresses high amount of AS-SPIK by integrated entire SPIK gene, Lu et. al Tumor-associated protein SPIK TATI suppresses serine protease dependent cell apoptosis, Apoptosis, 2008 13(4), 483-494 and NS—SPIK from pancreatic cells. Finally, 10 monoclonal antibodies which strongly bind AS-SPIK but not NS-SPIK were selected.

binding result | Binder
no binding | B2
no binding | B1
no binding | B3
no binding | B4
no binding | B5
no binding | B6
no binding | B7
no binding | B8
no binding | B9
no binding | B10
